Measured values taken from patent publication US20100098696A1.

What was measured:
[1] = molecular target: Murine FGFR-3(IIIc) expressed on L6 cells (murine) (UniProt Q61851); assay: fluorescent antibody 200 nM on FGFR-3 transfected L6 cells, 1 h at 37° C., Odyssey imaging
[2] = molecular target: Murine FGFR-3(IIIc) expressed on L6 cells (murine) (UniProt Q61851); assay: fluorescent antibody 200 nM on FGFR-3 transfected L6 cells, 1 h at 4° C., Odyssey imaging
[3] = molecular target: Murine FGFR-3(IIIc) expressed on L6 cells (murine) (UniProt Q61851); assay: fluorescent antibody 200 nM on FGFR-3 transfected L6 cells, 1 h at 4° C. followed by acid stripping, Odyssey imaging
[4] = molecular target: Murine FGFR-3(IIIc) expressed on L6 cells (murine) (UniProt Q61851); assay: fluorescent antibody 200 nM on FGFR-3 transfected L6 cells, 1 h at 37° C. followed by acid stripping, Odyssey imaging

Sequence of Murine FGFR-3(IIIc) expressed on L6 cells (murine) (Q61851 21-801): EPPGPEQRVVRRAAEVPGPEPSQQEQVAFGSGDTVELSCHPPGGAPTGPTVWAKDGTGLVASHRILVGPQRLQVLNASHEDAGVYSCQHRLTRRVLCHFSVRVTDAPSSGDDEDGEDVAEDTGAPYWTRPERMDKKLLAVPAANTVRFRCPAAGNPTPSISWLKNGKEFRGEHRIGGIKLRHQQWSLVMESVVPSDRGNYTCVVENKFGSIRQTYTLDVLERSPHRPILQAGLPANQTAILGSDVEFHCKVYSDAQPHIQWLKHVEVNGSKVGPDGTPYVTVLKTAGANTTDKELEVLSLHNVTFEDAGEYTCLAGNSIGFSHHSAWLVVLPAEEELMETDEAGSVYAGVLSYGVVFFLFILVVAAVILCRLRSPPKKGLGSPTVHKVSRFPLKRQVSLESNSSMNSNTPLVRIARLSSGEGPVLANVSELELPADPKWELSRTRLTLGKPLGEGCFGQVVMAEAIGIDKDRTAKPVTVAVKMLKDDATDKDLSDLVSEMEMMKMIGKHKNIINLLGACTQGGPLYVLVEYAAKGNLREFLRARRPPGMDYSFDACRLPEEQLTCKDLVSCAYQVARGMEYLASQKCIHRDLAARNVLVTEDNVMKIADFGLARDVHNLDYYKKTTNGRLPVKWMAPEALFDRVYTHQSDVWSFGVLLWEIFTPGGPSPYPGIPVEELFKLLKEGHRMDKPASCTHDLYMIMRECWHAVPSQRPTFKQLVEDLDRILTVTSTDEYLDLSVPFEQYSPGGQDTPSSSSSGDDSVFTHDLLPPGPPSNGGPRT

- relative fluorescent intensity [1]: 1.1
- relative fluorescent intensity [2]: 1.5
- relative fluorescent intensity [3]: 0.6
- relative fluorescent intensity [4]: 1
Substance: isotype-matched non-specific control antibody
